Results: US20100209956A1

Molecular target: soluble form of hepsin encompassing the entire extracellular domain (Arg45-Leu417) and a C-terminal His8 tag (human) (UniProt P05981)
Experiment: cell-based or functional assay

Sequence of soluble form of hepsin encompassing the entire extracellular domain (Arg45-Leu417) and a C-terminal His8 tag (human) (P05981 45-162 limits assumed, chain 1 of 2): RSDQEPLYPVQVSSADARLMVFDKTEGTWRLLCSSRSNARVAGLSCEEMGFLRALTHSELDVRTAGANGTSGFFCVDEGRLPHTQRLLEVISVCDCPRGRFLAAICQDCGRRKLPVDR
Sequence of soluble form of hepsin encompassing the entire extracellular domain (Arg45-Leu417) and a C-terminal His8 tag (human) (P05981 other isoform, or with tags, fused parts or gaps limits assumed, chain 2 of 2): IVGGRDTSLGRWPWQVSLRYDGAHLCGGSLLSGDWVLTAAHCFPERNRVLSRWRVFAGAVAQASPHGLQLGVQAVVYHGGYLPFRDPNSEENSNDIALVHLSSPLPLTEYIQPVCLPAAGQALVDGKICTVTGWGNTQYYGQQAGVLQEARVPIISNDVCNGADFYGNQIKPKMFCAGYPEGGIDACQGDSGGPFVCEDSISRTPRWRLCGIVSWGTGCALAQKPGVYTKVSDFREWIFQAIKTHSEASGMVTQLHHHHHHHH

B1: sHAI-1B(K401A) (protein, UniProt O43278 36-465, looked up)
chain: GPPPAPPGLPAGADCLNSFTAGVPGFVLDTNASVSNGATFLESPTVRRGWDCVRACCTTQNCNLALVELQPDRGEDAIAACFLINCLYEQNFVCKFAPREGFINYLTREVYRSYRQLRTQGFGGSGIPKAWAGIDLKVQPQEPLVLKDVENTDWRLLRGDTDVRVERKDPNQVELWGLKEGTYLFQLTVTSSDHPEDTANVTVTVLSTKQTEDYCLASNKVGRCRGSFPRWYYDPTEQICKSFVYGGCLGNKNNYLREEECILACRGVQGGPLRGSSGAQATFPQGPSMERRHPVCSGTCQPTQFRCSNGCCIDSFLECDDTPNCPDASDEAACEKYTSGFDELQRIHFPSDKGHCVDLPDTGLCAESIPRWYYNPFSEHCARFTYGGCYGNKNNFEEEQQCLESCRGISKKDVFGLRREIPIPSTGSVE
- IC50, inhibition of hepsin enzymatic activity towards S2366 (amidolytic assay): 18.2 nM

B2: sHAI-1B(R260A) (protein, UniProt O43278 36-465, looked up)
chain: GPPPAPPGLPAGADCLNSFTAGVPGFVLDTNASVSNGATFLESPTVRRGWDCVRACCTTQNCNLALVELQPDRGEDAIAACFLINCLYEQNFVCKFAPREGFINYLTREVYRSYRQLRTQGFGGSGIPKAWAGIDLKVQPQEPLVLKDVENTDWRLLRGDTDVRVERKDPNQVELWGLKEGTYLFQLTVTSSDHPEDTANVTVTVLSTKQTEDYCLASNKVGRCAGSFPRWYYDPTEQICKSFVYGGCLGNKNNYLREEECILACRGVQGGPLRGSSGAQATFPQGPSMERRHPVCSGTCQPTQFRCSNGCCIDSFLECDDTPNCPDASDEAACEKYTSGFDELQRIHFPSDKGHCVDLPDTGLCKESIPRWYYNPFSEHCARFTYGGCYGNKNNFEEEQQCLESCRGISKKDVFGLRREIPIPSTGSVE
- IC50, inhibition of hepsin enzymatic activity towards S2366 (amidolytic assay): > 1000 nM
- activity in amidolytic assays as percent of wildtype and KD2 mutant: < 1%
- fold reduction of inhibitory activity against wildtype sHAI-1B (amidolytic assay): > 47 fold

B3: soluble form of HAI-2 (sHAI-2), extracellular domain Ala28-Lys197 with a C-terminal His8 tag with a Gly spacer (protein, human, not shown: small tags and cut ends)
chain: ADRERSIHDFCLVSKVVGRCRASMPRWWYNVTDGSCQLFVYGGCDGNSNNYLTKEECLKKCATVTENATGDLATSRNAADSSVPSAPRRQDSEDHSSDMFNYEEYCTANAVTGPCRASFPRWYFDVERNSCNNFIYGGCRGNKNSYRSEEACMLRCFRQQENPPLPLGSKHHHHHHHH
- IC50, inhibition of hepsin enzymatic activity towards S2366 (amidolytic assay): 1.3 nM
